# B1: TPST2 (proposed catalytic domain of human tyrosylprotein sulfotransferase-2, Gly43-Ser377) (domain or fragment, UniProt O60704 43-377, looked up)
# chain: GAMRPEQEELVMVGTNHVEYRYGKAMPLIFVGGVPRSGTTLMRAMLDAHPEVRCGEETRIIPRVLAMRQAWSKSGREKLRLDEAGVTDEVLDAAMQAFILEVIAKHGEPARVLCNKDPFTLKSSVYLSRLFPNSKFLLMVRDGRASVHSMITRKVTIAGFDLSSYRDCLTKWNKAIEVMYAQCMEVGKEKCLPVYYEQLVLHPRRSLKLILDFLGIAWSDAVLHHEDLIGKPGGVSLSKIERSTDQVIKPVNLEALSKWTGHIPGDVVRDMAQIAPMLAQLGYDPYANPPNYGNPDPFVINNTQRVLKGDYKTPANLKGYFQVNQNSTSSHLGSS
# Columns and labels:
# [1] = target: T1, TPST2ΔC18 (38 kDa core domain of human tyrosylprotein sulfotransferase-2, Gly43–Leu359) (human, UniProt O60704 43-359); test: crystal structure
# T1 sequence (looked up): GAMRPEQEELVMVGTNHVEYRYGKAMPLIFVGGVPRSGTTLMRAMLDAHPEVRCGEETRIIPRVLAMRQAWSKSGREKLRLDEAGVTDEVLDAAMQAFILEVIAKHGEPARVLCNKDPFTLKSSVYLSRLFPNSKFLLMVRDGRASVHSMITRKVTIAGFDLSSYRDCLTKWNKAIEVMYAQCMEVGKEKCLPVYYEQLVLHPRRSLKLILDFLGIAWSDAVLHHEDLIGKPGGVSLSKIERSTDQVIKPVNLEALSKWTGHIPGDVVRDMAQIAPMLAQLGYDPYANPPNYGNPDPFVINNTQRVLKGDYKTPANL
# [2] = target: the molecule itself; test: crystal structure
Binder,binding result [1],binding result [2]
EDFEDYEFD [C4P5Y3 peptide (substrate peptide derived from human complement C4)],binds,
B1,,binds
